Molecular target: HLA-A*6802 (human)
Test: competition with 125I-labelled standard peptide on purified HLA, gel filtration

HPV16 E7 86 TLGIVCPI (peptide)
binding affinity ratio (IC50 of standard peptide / IC50 of test peptide): 0.0047

Reference: patent US7026443
